Test results taken from patent US20210395379A1 (NUMAB THERAPEUTICS, published 2021).
Changes are numbered by the printed parent chain. One block for each molecule: values may come before it.

Key:
[1] = biological target: T1, human CD137 expressed on Jurkat cells (human, UniProt Q07011 24-255); experiment: Flow cytometry on CD137 expressing Jurkat cells, detection with APC-labelled goat anti-human IgG
[2] = biological target: T2, human Fc-tagged CD40 (AcroBiosystems, cat. CD0-H5253) (human, UniProt P25942 21-193); experiment: SPR (Biacore T200), Fc-tagged CD40 captured by anti-human Fc, scFv as analyte
T2 construct: also called human CD40; not shown: Fc tag
T2 sequence (P25942 21-193 limits assumed): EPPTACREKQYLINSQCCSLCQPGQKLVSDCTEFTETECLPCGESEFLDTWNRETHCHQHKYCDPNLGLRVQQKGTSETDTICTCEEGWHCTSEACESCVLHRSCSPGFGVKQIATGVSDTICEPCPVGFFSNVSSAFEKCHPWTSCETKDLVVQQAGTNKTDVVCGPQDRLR
Experimental: (§1) Binding of scFvs to human Fc-tagged CD40 (AcroBiosystems, cat. CD0-H5253) and human Fc-tagged OX40 (Acro-Biosystems, cat. OX0-H5255) was determined by SPR analysis on a T200 device (Biacore, GE Healthcare). In this experiment, Fc-tagged CD40 and OX40 were captured using the Human Antibody Capture kit from GE healthcare (cat. BR-1008-39). After each analyte injection cycle, the anti-human Fc-specific IgG was regenerated and new antigen was captured. The scFvs were injected as analyte using a high concentration of 180 nM of the analyte diluted in running buffer. Association and dissociation time were set to 300 s and 720 s, respectively. Obtained sensorgrams were fitted using the 1:1 binding model.

[3] = biological target: T3, human Fc-tagged OX40 (Acro-Biosystems, cat. OX0-H5255) (human, UniProt P43489 29-216); experiment: SPR (Biacore T200), Fc-tagged OX40 captured by anti-human Fc, scFv as analyte
T3 construct: also called human OX40; not shown: Fc tag
T3 sequence (looked up): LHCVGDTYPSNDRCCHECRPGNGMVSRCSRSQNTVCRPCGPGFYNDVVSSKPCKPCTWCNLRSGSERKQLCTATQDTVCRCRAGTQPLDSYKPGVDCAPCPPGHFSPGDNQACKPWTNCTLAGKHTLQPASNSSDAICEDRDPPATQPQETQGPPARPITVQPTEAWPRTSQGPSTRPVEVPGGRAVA
Experimental: as §1

[4] = biological target: T1, human CD137 expressed on Jurkat cells; experiment: flow cytometry on CD137 expressing Jurkat cells, detection with APC labelled protein L
Experimental: 50,000 CD137 expressing Jurkat cells (or as reference cell line Jurkat cells lacking CD137 expression) were distributed to round bottom non-tissue culture treated 96 well plates. Cells were washed twice with 100 μl PBS by centrifugation at 400×g for 5 min. […] After 1 h incubation at 4° C. on a nutating mixer, cells were washed 3 times with 100 μl staining buffer and centrifugation steps of 5 min at 400×g. […] Plates were incubated 1 h at 4° C. on a nutating mixer, then washed 3 times with 100 μl of staining buffer and resuspended in a final volume of 50 μl of staining buffer. Finally, APC signal of 20,000 events per well was analyzed by flow cytometry using a Novocyte flow cytometer system (ACEA Bioscience).

[5] = biological target: T4, cynomolgus monkey Fc-tagged CD137 (R&D Systems, cat. 9324-4B-100) (cynomolgus monkey, UniProt A9YYE7 24-186); experiment: SPR (Biacore T200), cynomolgus Fc-tagged CD137 captured by anti-human Fc, scFv as analyte
T4 construct: also called cynomolgus CD137; CD137-Fc chimeric protein (cynomolgus); not shown: the Fc tag (and any linker) of the bought chimera (R&D Systems, cat. 9324-4B-100)
T4 sequence (A9YYE7 entry or part of it limits assumed): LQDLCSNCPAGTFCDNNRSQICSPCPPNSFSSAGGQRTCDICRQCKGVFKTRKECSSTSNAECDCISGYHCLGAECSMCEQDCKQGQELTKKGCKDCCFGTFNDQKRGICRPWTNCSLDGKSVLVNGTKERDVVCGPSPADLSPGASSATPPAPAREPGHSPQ
Experimental: (§2) In this experiment, Fc tagged human CD137 (R&D Systems, cat. 838-4B-100) was captured using the Human Antibody Capture kit from GE healthcare (cat. BR-1008-39). After each analyte injection cycle, the anti-human Fc-specific IgG was regenerated and new antigen was captured. The scFvs were injected as analyte using a dose response multi-cycle kinetic assay over the captured CD137 with concentrations of the analyte ranging from 0.19 to 45 nM (three-fold dilutions steps) diluted in running buffer. Association and dissociation time were set to 300 s and 720 s, respectively. The obtained sensorgrams were fitted using the 1:1 binding model.
Cross-reactivity to cynomolgus CD137 was measured with cynomolgus monkey Fc-tagged CD137 (R&D Systems, cat. 9324-4B-100) in a similar assay as used to measure binding to human CD137.

[6] = biological target: T5, Fc tagged human CD137 (R&D Systems, cat. 838-4B-100) (human, UniProt Q07011 24-186); experiment: SPR (Biacore T200), Fc tagged human CD137 captured by anti-human Fc, scFv as analyte 0.19-45 nM
T5 construct: Bought Fc chimera; also called CD137 Fc chimera; human CD137 (tagged with Fc); not shown: Fc tag of the bought chimera
Experimental: as §2

EC50 (read off the curve) [1]: 0.06 µg/mL
Molecule: urelumab (antibody)

binding result [2]: no binding (tested: 180 nM)
binding result [3]: no binding (tested: 180 nM)
EC50 [4]: 3.99 µg/mL
Maximum binding (relative to urelumab) [4]: 18%
Kd [5]: 2.88 nM
koff [5]: 0.00267 s⁻¹
kon [5]: 927000 M⁻¹ s⁻¹
koff [6]: 0.00281 s⁻¹
kon [6]: 866000 M⁻¹ s⁻¹
B1: PRO1359 (38-27-A11 sc02) (scFv)
scFv: DIQMTQSPSSLSASVGDRVTITCQASQSISNRLAWYQQKPGKAPKLLIYSASTLASGVPSRFSGSGSGTDFTLTISSLQPEDFATYYCQSTYYGNDGNAFGTGTKVTVLGGGGGSGGGGSGGGGSGGGGSEVQLVESGGGLVQPGGSLRLSCAASGFSFSANYYPCWVRQAPGKGLEWIGCIYGGSSDITYDANWTKGRFTISRDNSKNTVYLQMNSLRAEDTAVYYCARSAWYSGWGGDLWGQGTLVTVSS
notes: VL-linker-VH, CDR graft, Vk1/VH3; also called anti-4-1BB scFv

binding result [2]: no binding (tested: 180 nM)
binding result [3]: no binding (tested: 180 nM)
EC50 [4]: 0.148 µg/mL
Maximum binding (relative to urelumab) [4]: 29%
Kd [5]: 0.24 nM
koff [5]: 0.000252 s⁻¹
kon [5]: 1.05e+06 M⁻¹ s⁻¹
koff [6]: 0.0003 s⁻¹
kon [6]: 1.28e+06 M⁻¹ s⁻¹
B2: PRO1360 (38-27-A11 sc03) (scFv)
scFv: B1 scFv with I2F, M4L, A43P, V132S, Y227F, Q244P
notes: VL-linker-VH, full graft, Vk1/VH3
